Each block holds one binder with its values, some of them ahead of it. Where no end group is shown, it is not given here.
B2: recombinant fragment Rtt106p-M (Rtt106p_(65-320)), purified (domain or fragment, S. cerevisiae, UniProt P40161 65-320, looked up)
chain: DEISETNTIFKLEGVSVLSPLRKKLDLVFYLSNVDGSPVITLLKGNDRELSIYQLNKNIKMASFLPVPEKPNLIYLFMTYTSCEDNKFSEPVVMTLNKENTLNQFKNLGLLDSNVTDFEKCVEYIRKQAILTGFKISNPFVNSTLVDTDAEKINSFHLQCHRGTKEGTLYFLPDHIIFGFKKPILLFDASDIESITYSSITRLTFNASLVTKDGEKYEFSMIDQTEYAKIDDYVKRKQMKDKSMSEELKAKSKSKG
notes: Rtt106p, yeast, residues 65-320 (tandem PH1 and PH2 domains); Native MS mass 29,695 Da; also called 65-320 (M) domain of Rtt106p
B3: recombinant Bcd1pFL, purified (natural protein, S. cerevisiae, UniProt P38772 1-366, looked up)
chain: MAVLCGVCGIKEFKYKCPRCLVQTCSLECSKKHKTRDNCSGQTHDPKEYISSEALKQADDDKHERNAYVQRDYNYLTQLKRMVHVQKMDARMKNKRVLGPVGGHNSNFKKRRYDIDEDDRDSTECQRIIRRGVNCLMLPKGMQRSSQNRSKWDKTMDLFVWSVEWILCPMQEKGEKKELFKHVSHRIKETDFLVQGMGKNVFQKCCEFYRLAGTSSCIEGEDGSETKEERTQILQKSGLKFYTKTFPYNTTHIMDSKKLVELAIHEKCIGELLKNTTVIEFPTIFVAMTEADLPEGYEVLHQEPRPLEHTSTLNKFIDNAREEEDAEEDSQPTEEPVQKETQDASDSDSDSDDDYNPGLSMDFLTA
notes: Bcd1p, S. cerevisiae, full length; Detected by native MS with two zinc ions (42,752 Da); also called Bcd1FL; full-length Bcd1p

Assays:
[1] = molecular target: T1, recombinant fragment Rtt106p-M (Rtt106p_(65-320)), purified (S. cerevisiae, UniProt P40161 65-320); experiment: ITC
T1 chain: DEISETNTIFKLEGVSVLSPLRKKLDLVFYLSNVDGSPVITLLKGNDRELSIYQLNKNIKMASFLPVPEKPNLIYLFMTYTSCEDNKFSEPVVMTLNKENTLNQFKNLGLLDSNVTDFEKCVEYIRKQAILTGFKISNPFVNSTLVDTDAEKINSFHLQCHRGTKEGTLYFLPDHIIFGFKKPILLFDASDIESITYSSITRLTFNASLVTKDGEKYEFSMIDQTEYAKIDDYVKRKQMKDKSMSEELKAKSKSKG

[2] = molecular target: B3; experiment: ITC; 293 K, 10 mM NaPi pH 7.5, 150 mM NaCl, 0.5 mM TCEP; 40 μM titrated, 400 μM titrant; conditions: both partners purified
[3] = molecular target: B2; experiment: native MS; individual partners and co-purified complex in 150 mM ammonium acetate pH 7.5, nanoESI, nondenaturing conditions; conditions: both partners purified
Rtt106p_(65-301) [4] = molecular target: T2, Rtt106p_(65-301) (S. cerevisiae, UniProt P40161 65-301); experiment: ITC; H3K56ac peptide (2 mM) as the titrant into 200 μM Rtt106p_(65-301) with or without Bcd1p_(120-303); conditions: both partners purified
T2 construct: Rtt106p, yeast, residues 65-301 (tandem PH domains); also called Rtt106_(65-301); source: E. coli BL21 pRARE2, purified
T2 sequence (looked up): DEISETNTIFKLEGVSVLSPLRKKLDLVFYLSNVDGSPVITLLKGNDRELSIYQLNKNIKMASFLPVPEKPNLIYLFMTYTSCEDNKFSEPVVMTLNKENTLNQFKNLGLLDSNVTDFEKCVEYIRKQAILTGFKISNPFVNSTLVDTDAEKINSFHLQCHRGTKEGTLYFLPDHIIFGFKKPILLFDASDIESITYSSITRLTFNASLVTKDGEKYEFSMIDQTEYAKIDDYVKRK

[5] = molecular target: T3, Rtt106p_(65-301) bound to Bcd1p_(120-303) (S. cerevisiae, UniProt P40161 65-301; P38772 120-303); experiment: as above; conditions: both partners purified
T3 construct: Rtt106p, yeast, residues 65-301; as the chain of m19; as the chain of m18; Formed before titration with the H3K56ac peptide; source: E. coli BL21 pRARE2, purified proteins, mixed; not shown: His6, N-terminal, cleaved; copies: 1 + 1
T3 sequence (looked up) 1: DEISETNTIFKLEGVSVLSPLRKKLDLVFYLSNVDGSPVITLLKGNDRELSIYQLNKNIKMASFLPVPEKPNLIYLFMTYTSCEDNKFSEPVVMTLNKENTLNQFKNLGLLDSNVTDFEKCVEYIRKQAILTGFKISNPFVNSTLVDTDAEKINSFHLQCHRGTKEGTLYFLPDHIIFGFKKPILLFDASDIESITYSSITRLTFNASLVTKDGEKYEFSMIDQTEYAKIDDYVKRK
T3 sequence (looked up) 2: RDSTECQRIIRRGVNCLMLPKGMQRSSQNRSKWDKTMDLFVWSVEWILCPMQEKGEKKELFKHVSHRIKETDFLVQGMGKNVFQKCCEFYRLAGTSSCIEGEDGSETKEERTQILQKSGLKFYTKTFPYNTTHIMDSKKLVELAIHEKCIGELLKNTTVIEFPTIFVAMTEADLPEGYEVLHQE

Rtt106p_(65-301) [6] = molecular target: T4, Rtt106p_(65-301) (S. cerevisiae, UniProt P40161 65-301); experiment: ITC
T4 chain: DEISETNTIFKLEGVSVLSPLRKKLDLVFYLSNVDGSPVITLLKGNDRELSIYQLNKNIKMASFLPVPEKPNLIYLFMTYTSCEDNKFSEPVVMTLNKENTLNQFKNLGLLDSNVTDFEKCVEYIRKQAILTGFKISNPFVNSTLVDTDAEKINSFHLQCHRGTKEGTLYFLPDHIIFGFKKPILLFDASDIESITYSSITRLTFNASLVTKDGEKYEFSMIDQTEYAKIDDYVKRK

[7] = molecular target: T5, Rtt106p_(65-301) bound to Bcd1p_(120-303) (S. cerevisiae, UniProt P40161 65-301; P38772 120-303); experiment: ITC
T5 chain 1: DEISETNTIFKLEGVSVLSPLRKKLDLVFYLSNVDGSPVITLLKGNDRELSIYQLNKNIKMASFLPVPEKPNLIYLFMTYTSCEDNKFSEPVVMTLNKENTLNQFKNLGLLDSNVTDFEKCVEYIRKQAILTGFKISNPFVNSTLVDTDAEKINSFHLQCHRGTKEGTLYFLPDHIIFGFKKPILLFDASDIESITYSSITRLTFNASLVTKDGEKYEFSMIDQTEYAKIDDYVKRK
T5 chain 2: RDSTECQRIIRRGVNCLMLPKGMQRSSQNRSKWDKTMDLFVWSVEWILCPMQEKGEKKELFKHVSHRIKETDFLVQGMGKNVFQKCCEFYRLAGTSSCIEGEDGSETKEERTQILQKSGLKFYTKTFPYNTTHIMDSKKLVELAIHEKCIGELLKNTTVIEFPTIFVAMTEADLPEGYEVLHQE

Rtt106p_(65-301) [8] = molecular target: T2, Rtt106p_(65-301); experiment: ITC; 293 K, 10 mM NaPi pH 7.5, 150 mM NaCl, 0.5 mM TCEP; 40 μM titrated, 400 μM titrant; conditions: both partners purified

Kd [1]: 1.74 µM
B1: Bcd1p120-366 (protein)
chain: RDSTECQRIIRRGVNCLMLPKGMQRSSQNRSKWDKTMDLFVWSVEWILCPMQEKGEKKELFKHVSHRIKETDFLVQGMGKNVFQKCCEFYRLAGTSSCIEGEDGSETKEERTQILQKSGLKFYTKTFPYNTTHIMDSKKLVELAIHEKCIGELLKNTTVIEFPTIFVAMTEADLPEGYEVLHQEPRPLEHTSTLNKFIDNAREEEDAEEDSQPTEEPVQKETQDASDSDSDSDDDYNPGLSMDFLTA

Binder: B2
Kd [2]: 1.17 ± 0.17 µM

Binder: B3
stoichiometry N [3]: 1

binding result (Rtt106p_(65-301) [4]): binds
binding result [5]: binds
Kd (Rtt106p_(65-301) [6]): 714 µM
Kd [7]: 649 µM
B4: H3K56ac (IRRFQKacSTELL) peptide (peptide)
peptide: IRRFQK(Ac)STELL
notes: histone H3 stretch around lysine 56, acetylated at K56; also called acetylated peptide; source: synthetic peptide, bought: Proteogenix

Kd [1]: 1.16 µM
Kd (Rtt106p_(65-301) [6]): 1.63 µM
Kd (Rtt106p_(65-301) [8]): 0.94 ± 0.06 µM
B5: Bcd1p_(120-303) (domain or fragment, S. cerevisiae, UniProt P38772 120-303, looked up)
chain: RDSTECQRIIRRGVNCLMLPKGMQRSSQNRSKWDKTMDLFVWSVEWILCPMQEKGEKKELFKHVSHRIKETDFLVQGMGKNVFQKCCEFYRLAGTSSCIEGEDGSETKEERTQILQKSGLKFYTKTFPYNTTHIMDSKKLVELAIHEKCIGELLKNTTVIEFPTIFVAMTEADLPEGYEVLHQE
notes: Tag removal is told for the NMR preparation; the preparation for ITC is not described separately; source: E. coli BL21 pRARE2, purified (TALON, PreScission cleavage, gel filtration); not shown: His6, N-terminal, cleaved

— paper PMC7994586, “The box C/D snoRNP assembly factor Bcd1 interacts with the histone chaperone Rtt106 and controls its transcription dependent activity” (Nature Communications, 2021)
